According to patent publication US20130236467A1 (published 2013):

Biological target: T1, Human HGFv1 (human, UniProt P14210 32-728)
T1 construct: Biotinylated in the bridging ELISA; also called HGF (fl); HGF full length
Assay: Biacore SPR, antibody captured on anti-human IgG, HGF as analyte, 37 C, 1:1 model

T1 sequence (P14210 32-728 limits assumed, form in doubt): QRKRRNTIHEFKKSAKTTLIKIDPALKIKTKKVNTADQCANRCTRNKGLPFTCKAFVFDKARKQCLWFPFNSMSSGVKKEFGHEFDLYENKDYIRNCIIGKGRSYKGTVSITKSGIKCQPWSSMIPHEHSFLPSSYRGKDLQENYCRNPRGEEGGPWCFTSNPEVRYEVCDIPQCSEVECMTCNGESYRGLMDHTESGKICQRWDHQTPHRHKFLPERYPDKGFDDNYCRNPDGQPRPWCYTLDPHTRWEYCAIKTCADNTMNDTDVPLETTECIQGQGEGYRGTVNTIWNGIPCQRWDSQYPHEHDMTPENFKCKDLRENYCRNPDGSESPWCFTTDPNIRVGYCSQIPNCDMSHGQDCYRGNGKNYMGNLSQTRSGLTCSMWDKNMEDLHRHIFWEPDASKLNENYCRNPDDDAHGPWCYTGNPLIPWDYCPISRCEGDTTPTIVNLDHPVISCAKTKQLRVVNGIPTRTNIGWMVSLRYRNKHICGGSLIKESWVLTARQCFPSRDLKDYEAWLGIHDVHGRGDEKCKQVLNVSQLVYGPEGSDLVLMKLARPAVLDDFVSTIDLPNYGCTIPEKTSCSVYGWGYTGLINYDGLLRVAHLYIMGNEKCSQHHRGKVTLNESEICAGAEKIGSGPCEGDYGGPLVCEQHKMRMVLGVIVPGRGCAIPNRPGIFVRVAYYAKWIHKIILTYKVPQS

| Kd [pM] | koff [s⁻¹] | kon [M⁻¹ s⁻¹] | Binder |
| --- | --- | --- | --- |
| 34 | 1.49e-05 | 434000 | BPC 1856, anti-HGF S260116C12VL1 Chimera (antibody, V domains shown, also called chimeric mAb BPC1856) VH: QIQLRQSGAGLMKPGASVKLSCKATGYTFTGYWIEWVKQRPGHDLEWIGEILPGSGTTNYNEKFKGKATFTADTSSNTAYMQLSSLTTEDSAIYYCARGGYYYGSSYDSWGQGTLVTVSS VL: DIVLTQSPASLAVSLGQRATISCRASESVSIHGTHLMHWYQQKPGQPPKLLIYAASNLESGVPARFSGSGSETDFTLNIHPVEEEDAATYFCQQSIEDPYTFGGGTKLEIKR |

Biological target: human HGFδ5 (human) (UniProt P14210)
Assay: as above

human HGFδ5 (human), sequence (P14210 other isoform, or with tags, fused parts or gaps mutant): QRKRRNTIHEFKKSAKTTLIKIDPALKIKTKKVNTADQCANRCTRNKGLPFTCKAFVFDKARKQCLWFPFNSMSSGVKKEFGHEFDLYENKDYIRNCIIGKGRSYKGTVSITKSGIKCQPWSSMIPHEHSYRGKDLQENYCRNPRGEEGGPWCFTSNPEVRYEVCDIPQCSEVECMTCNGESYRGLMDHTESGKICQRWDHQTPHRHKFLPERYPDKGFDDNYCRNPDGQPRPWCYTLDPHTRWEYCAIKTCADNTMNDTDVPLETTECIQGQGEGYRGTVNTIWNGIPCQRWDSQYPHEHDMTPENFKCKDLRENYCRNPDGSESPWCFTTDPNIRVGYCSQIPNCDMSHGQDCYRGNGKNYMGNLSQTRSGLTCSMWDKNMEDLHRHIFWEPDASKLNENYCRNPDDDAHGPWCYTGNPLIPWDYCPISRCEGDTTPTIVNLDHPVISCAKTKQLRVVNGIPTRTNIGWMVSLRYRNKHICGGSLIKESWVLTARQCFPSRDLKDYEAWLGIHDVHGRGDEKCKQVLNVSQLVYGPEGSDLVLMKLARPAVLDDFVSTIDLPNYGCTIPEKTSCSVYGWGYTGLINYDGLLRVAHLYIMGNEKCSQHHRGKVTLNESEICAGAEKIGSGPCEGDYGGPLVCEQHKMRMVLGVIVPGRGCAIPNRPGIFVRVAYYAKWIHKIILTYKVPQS

| Kd [pM] | koff [s⁻¹] | kon [M⁻¹ s⁻¹] | Binder |
| --- | --- | --- | --- |
| 42 | 1.78e-05 | 423000 | BPC 1856, anti-HGF S260116C12VL1 Chimera (antibody, V domains shown, also called chimeric mAb BPC1856) VH: QIQLRQSGAGLMKPGASVKLSCKATGYTFTGYWIEWVKQRPGHDLEWIGEILPGSGTTNYNEKFKGKATFTADTSSNTAYMQLSSLTTEDSAIYYCARGGYYYGSSYDSWGQGTLVTVSS VL: DIVLTQSPASLAVSLGQRATISCRASESVSIHGTHLMHWYQQKPGQPPKLLIYAASNLESGVPARFSGSGSETDFTLNIHPVEEEDAATYFCQQSIEDPYTFGGGTKLEIKR |

Biological target: recombinant human VEGF (hVEGF-165) (human) (UniProt P15692)
Assay: Proteon SPR estimate, mAb-dAb in transfection supernatant

| Kd [pM] | Binder |
| --- | --- |
| 40 | DT02-K-044-077 in Pascolizumab-(GSTVAAPS)3-T mAb-dAb format (bispecific antibody, part only; not given: Pascolizumab chains and linker, not shown: another chain or arm of the molecule; small tags and cut ends) dAb: DIQMTQSPSSLSASVGDRVTITCRASQWIGPELAWYQQKPGKAPKLLIYHGSILQSGVPSRFSGSGSGTDFTLTISSLQPEDFATYYCQQYMYYPHTFGQGTKVEIKR |
| 44 | DT02-K-044-238 in Pascolizumab-(GSTVAAPS)3-T mAb-dAb format (bispecific antibody, part only; not given: Pascolizumab chains and linker, not shown: another chain or arm of the molecule; small tags and cut ends) dAb: DIQMTQSPSSLSASVGDRVTITCRASQWIGPELSWYQQKPGKAPKLLIYHGSILQSGVPSRFSGSGSGTDFTLTISSLQPEDFATYYCQQYMYYPMTFGQGTKVEIKR |
| 5 | DT02-K-044-087 in Pascolizumab-(GSTVAAPS)3-T mAb-dAb format (bispecific antibody, part only; not given: pascolizumab chains and linker, not shown: another chain or arm of the molecule; large carriers; small tags and cut ends) dAb: DIQMTQSPSSLSASVGDRVTITCRASQWIGPELMWYQQKPGKAPKLLIYHGSILQSGVPSRFSGSGSGTDFTLTISSLQPEDFATYYCQQYMYYPHTFGQGTKVEIKR |
| 49 | DT02-K-044-083 in Pascolizumab-(GSTVAAPS)3-T mAb-dAb format (bispecific antibody, part only; not given: pascolizumab heavy and light chains, not shown: another chain or arm of the molecule; small tags and cut ends) dAb: DIQMTQSPSSLSASVGDRVTITCRASQWIGPELHWYQQKPGKAPKLLIYHGSILQSGVPSRFSGSGSGTDFTLTISSLQPEDFATYYCQQYMYYPHTFGQGTKVEIKR |
| 23 | DT02-K-044-230 in Pascolizumab-(GSTVAAPS)3-T mAb-dAb format (bispecific antibody, part only; not given: pascolizumab chains and linker, not shown: another chain or arm of the molecule; small tags and cut ends) dAb: DIQMTQSPSSLSASVGDRVTITCRASQWIGPELSWYQQKPGKAPKLLIYHGSILQSGVPSRFSGSGSGTDFTLTISSLQPEDFATYYCQQYMYYPCTFGQGTKVEIKR |
| 6 | DT02-K-044-095 in Pascolizumab-(GSTVAAPS)3-T mAb-dAb format (bispecific antibody, part only; not given: pascolizumab chains and linker, not shown: another chain or arm of the molecule; large carriers; small tags and cut ends) dAb: DIQMTQSPSSLSASVGDRVTITCRASQWIGPELYWYQQKPGKAPKLLIYHGSILQSGVPSRFSGSGSGTDFTLTISSLQPEDFATYYCQQYMYYPHTFGQGTKVEIKR |
| 4 | DT02-K-044-232 in Pascolizumab-(GSTVAAPS)3-T mAb-dAb format (bispecific antibody, part only; not given: pascolizumab chains and linker, not shown: another chain or arm of the molecule; small tags and cut ends) dAb: DIQMTQSPSSLSASVGDRVTITCRASQWIGPELSWYQQKPGKAPKLLIYHGSILQSGVPSRFSGSGSGTDFTLTISSLQPEDFATYYCQQYMYYPETFGQGTKVEIKR |
| 52 | DT02-K-044-088 in Pascolizumab-(GSTVAAPS)3-T mAb-dAb format (bispecific antibody, part only; not given: pascolizumab chains and linker, not shown: another chain or arm of the molecule; large carriers; small tags and cut ends) dAb: DIQMTQSPSSLSASVGDRVTITCRASQWIGPELNWYQQKPGKAPKLLIYHGSILQSGVPSRFSGSGSGTDFTLTISSLQPEDFATYYCQQYMYYPHTFGQGTKVEIKR |
| 18 | DT02-K-044-247 in Pascolizumab-(GSTVAAPS)3-T mAb-dAb format (bispecific antibody, part only; not given: pascolizumab chains and linker, not shown: another chain or arm of the molecule; large carriers; small tags and cut ends) dAb: DIQMTQSPSSLSASVGDRVTITCRASQWIGPELSWYQQKPGKAPKLLIYHGSILQSGVPSRFSGSGSGTDFTLTISSLQPEDFATYYCQQYMYYPYTFGQGTKVEIKR |
| 20 | DT02-K-044-090 in Pascolizumab-(GSTVAAPS)3-T mAb-dAb format (bispecific antibody, part only; not given: pascolizumab chains and linker, not shown: another chain or arm of the molecule; large carriers; small tags and cut ends) dAb: DIQMTQSPSSLSASVGDRVTITCRASQWIGPELQWYQQKPGKAPKLLIYHGSILQSGVPSRFSGSGSGTDFTLTISSLQPEDFATYYCQQYMYYPHTFGQGTKVEIKR |
| 34 | DT02-K-044-093 in Pascolizumab-(GSTVAAPS)3-T mAb-dAb format (bispecific antibody, part only; not given: Pascolizumab chains and linker, not shown: another chain or arm of the molecule; large carriers; small tags and cut ends) dAb: DIQMTQSPSSLSASVGDRVTITCRASQWIGPELVWYQQKPGKAPKLLIYHGSILQSGVPSRFSGSGSGTDFTLTISSLQPEDFATYYCQQYMYYPHTFGQGTKVEIKR |
| 3 | DT02-K-044-092 in Pascolizumab-(GSTVAAPS)3-T mAb-dAb format (bispecific antibody, part only; not given: pascolizumab chains and linker, not shown: another chain or arm of the molecule; large carriers; small tags and cut ends) dAb: DIQMTQSPSSLSASVGDRVTITCRASQWIGPELTWYQQKPGKAPKLLIYHGSILQSGVPSRFSGSGSGTDFTLTISSLQPEDFATYYCQQYMYYPHTFGQGTKVEIKR |
| 43 | DT02-K-044-240 in Pascolizumab-(GSTVAAPS)3-T mAb-dAb format (bispecific antibody, part only; not given: pascolizumab chains and linker, not shown: another chain or arm of the molecule; large carriers; small tags and cut ends) dAb: DIQMTQSPSSLSASVGDRVTITCRASQWIGPELSWYQQKPGKAPKLLIYHGSILQSGVPSRFSGSGSGTDFTLTISSLQPEDFATYYCQQYMYYPPTFGQGTKVEIKR |
| 4 | DT02-K-044-235 in Pascolizumab-(GSTVAAPS)3-T mAb-dAb format (bispecific antibody, part only; not given: pascolizumab chains and linker, not shown: another chain or arm of the molecule; small tags and cut ends) dAb: DIQMTQSPSSLSASVGDRVTITCRASQWIGPELSWYQQKPGKAPKLLIYHGSILQSGVPSRFSGSGSGTDFTLTISSLQPEDFATYYCQQYMYYPITFGQGTKVEIKR |
| 2 | DT02-K-044-229 in Pascolizumab-(GSTVAAPS)3-T mAb-dAb format (bispecific antibody, part only; not given: pascolizumab chains and linker, not shown: another chain or arm of the molecule; small tags and cut ends) dAb: DIQMTQSPSSLSASVGDRVTITCRASQWIGPELSWYQQKPGKAPKLLIYHGSILQSGVPSRFSGSGSGTDFTLTISSLQPEDFATYYCQQYMYYPATFGQGTKVEIKR |
| 13 | DT02-K-044-239 in Pascolizumab-(GSTVAAPS)3-T mAb-dAb format (bispecific antibody, part only; not given: Pascolizumab chains and linker, not shown: another chain or arm of the molecule; large carriers; small tags and cut ends) dAb: DIQMTQSPSSLSASVGDRVTITCRASQWIGPELSWYQQKPGKAPKLLIYHGSILQSGVPSRFSGSGSGTDFTLTISSLQPEDFATYYCQQYMYYPNTFGQGTKVEIKR |
